Data taken from patent US20230136228A1 (LAMKAP BIO ALPHA, published 2023).

T1: human CEACAM3 (human, UniProt P40198 35-252)
T1 construct: whole, on cells
T1 sequence (looked up): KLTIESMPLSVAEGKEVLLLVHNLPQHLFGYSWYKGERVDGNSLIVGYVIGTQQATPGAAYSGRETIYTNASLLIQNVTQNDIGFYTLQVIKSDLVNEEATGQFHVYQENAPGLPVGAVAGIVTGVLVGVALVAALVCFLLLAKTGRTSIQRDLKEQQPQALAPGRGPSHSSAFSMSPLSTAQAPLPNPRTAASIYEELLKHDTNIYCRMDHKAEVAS

T2: human CEACAM4 (human, UniProt O75871 36-244)
T2 construct: whole, on cells
T2 sequence (looked up): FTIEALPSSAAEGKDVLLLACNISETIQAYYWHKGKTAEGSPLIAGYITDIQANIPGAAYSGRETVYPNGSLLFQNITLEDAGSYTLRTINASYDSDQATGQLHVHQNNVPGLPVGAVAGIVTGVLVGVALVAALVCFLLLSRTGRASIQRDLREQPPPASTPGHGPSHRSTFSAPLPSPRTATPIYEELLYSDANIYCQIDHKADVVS

T3: human CEACAM8 (human, UniProt P31997 35-320)
T3 construct: whole, on cells
T3 sequence (looked up): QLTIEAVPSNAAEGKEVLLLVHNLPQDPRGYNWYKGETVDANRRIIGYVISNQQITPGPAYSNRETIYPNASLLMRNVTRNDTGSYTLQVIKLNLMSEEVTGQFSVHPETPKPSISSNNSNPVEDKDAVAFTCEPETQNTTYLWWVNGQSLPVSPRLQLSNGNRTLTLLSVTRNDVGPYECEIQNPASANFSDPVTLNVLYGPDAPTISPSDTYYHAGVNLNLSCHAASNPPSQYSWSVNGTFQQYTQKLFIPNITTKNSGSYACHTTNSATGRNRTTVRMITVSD

T4: human CEACAM6 (human, UniProt P40199 35-320)
T4 construct: whole, on cells; also called CD66c
T4 sequence (looked up): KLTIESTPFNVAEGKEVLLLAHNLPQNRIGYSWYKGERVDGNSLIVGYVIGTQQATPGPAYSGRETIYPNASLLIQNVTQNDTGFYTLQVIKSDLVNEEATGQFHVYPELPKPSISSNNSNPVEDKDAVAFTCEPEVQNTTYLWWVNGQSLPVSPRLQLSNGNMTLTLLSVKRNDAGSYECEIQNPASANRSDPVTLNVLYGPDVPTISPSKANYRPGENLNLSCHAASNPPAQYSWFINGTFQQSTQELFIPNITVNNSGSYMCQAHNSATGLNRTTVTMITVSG

T5: human CEACAM5 (carcinoembryonic antigen, CEA), cell surface (human, UniProt P06731 35-685)
T5 construct: whole, on cells; also called CD66e
T5 sequence (looked up): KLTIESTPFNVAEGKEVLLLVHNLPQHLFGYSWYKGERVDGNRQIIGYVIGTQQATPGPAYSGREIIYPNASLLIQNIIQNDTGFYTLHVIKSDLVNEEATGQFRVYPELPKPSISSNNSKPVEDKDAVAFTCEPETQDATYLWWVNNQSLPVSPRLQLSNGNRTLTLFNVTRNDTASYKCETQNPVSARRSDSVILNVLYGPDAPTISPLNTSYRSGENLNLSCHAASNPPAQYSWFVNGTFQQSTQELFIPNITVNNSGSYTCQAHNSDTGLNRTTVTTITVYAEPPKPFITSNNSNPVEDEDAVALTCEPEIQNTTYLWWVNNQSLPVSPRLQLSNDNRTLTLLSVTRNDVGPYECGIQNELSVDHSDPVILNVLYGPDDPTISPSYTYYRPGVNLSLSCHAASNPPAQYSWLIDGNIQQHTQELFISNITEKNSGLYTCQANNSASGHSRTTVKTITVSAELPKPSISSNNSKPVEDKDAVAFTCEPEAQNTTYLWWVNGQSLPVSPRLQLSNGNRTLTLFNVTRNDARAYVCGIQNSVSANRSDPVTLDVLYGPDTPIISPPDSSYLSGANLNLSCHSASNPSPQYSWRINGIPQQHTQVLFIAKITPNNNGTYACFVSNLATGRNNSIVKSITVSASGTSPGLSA


Key:
[1] = target: T1, human CEACAM3; assay: flow cytometry, MFI on transfected PEAK cells divided by MFI on WT PEAK cells
Protocol: (§1) Similarly, vectors encoding the full-length version of cyno CEACAM 5 and 6 are also used to express these proteins at the surface of PEAK and/or CHO cells. Non-transfected PEAK and/or CHO cells are used as negative control. Cells are harvested, counted, checked for viability and resuspended at 3×10⁶ cells/ml in FACS buffer (PBS 2% BSA, 0.1% NaN₃). 100 μl of the cell suspension are distributed in V-bottom 96-well plates (3×10⁵ cells/well). The supernatant is removed by centrifugation 3 minutes at 4° C., 1300 rpm and the cells incubated for 15 minutes at 4° C. with increasing concentrations of the antibody according to the invention. The antibodies carrying the anti-CEACAM5 arms to test are diluted in FACS buffer and the concentration range is 30 pM-500 nM. Cells are washed twice with cold FACS buffer and re-incubated for further 15 minutes at 4° C. with a compatible anti-human IgG secondary antibody. Cells are washed twice with cold FACS buffer and resuspended in 300 μl FACS buffer with 1:1500-diluted TOPRO-3 (Invitrogen). Fluorescence is measured using a FACSCalibur™ (BD Biosciences) or a Cytoflex Platform (Beckman Coulter). Dose-response binding curves are fitted using GraphPad Prism8 software. In the same manner, CEACAM1, CEACAM6 and other CEACAMs can be characterized.
(§2) For the bispecific antibodies AB17L3-1/N, AB71L3-1/N, AB72L3-1/N, AB73L3-1/N the MFI measured for binding to CEACAM5 transfected cells was found between 29000 and 41000 (Table 2). In contrast MFI found by using PEAK cells transfected with CEACAM 1,3,4,6,8 were found below 1000 with the only exception of a strong signal for AB72L3-1/N on CEACAM8 transfected cells. When MFI values obtained on transfected cells expressing any given CEACAM are divided by the values obtained on WT PEAK cells, “factors to PEAK WT” can be calculated (Table 3). With the exception of AB72L3-1/N, the antibodies of the invention are all specific to CEACAM5, as the “factor to PEAK WT” values are all below 2.0.

[2] = target: T2, human CEACAM4; assay: as above
Protocol: as §1, §2

[3] = target: T3, human CEACAM8; assay: as above
Protocol: as §1, §2

[4] = target: T4, human CEACAM6; assay: as above
Protocol: as §1, §2

[5] = target: T5, human CEACAM5 (carcinoembryonic …); assay: flow cytometry, CEA positive cells

| Binder | Factor to PEAK WT [1] [fold] | Factor to PEAK WT [2] [fold] | Factor to PEAK WT [3] [fold] | Factor to PEAK WT [4] [fold] | binding higher than TCB2014 (at 200 nM) [5] [%] |
| --- | --- | --- | --- | --- | --- |
| AB17L3-1/N (bispecific antibody, human IgG1, kappa, lambda, L234A L235A, Kappa-lambda body, lead optimization wave 1) heavy: EVQLVESGGGLVQPGGSLKLSCAASGFTFNTYAMNWVRQAPGKGLEWVGRIRSKYNNYATYYADSVKDRFTISRDDSKNTAYLQMNSLKTEDTAVYYCVRHGNFGNSYVSWFAYWGQGTLVTVSSASTKGPSVFPLAPSSKSTSGGTAALGCLVKDYFPEPVTVSWNSGALTSGVHTFPAVLQSSGLYSLSSVVTVPSSSLGTQTYICNVNHKPSNTKVDKRVEPKSCDKTHTCPPCPAPEAAGGPSVFLFPPKPKDTLMISRTPEVTCVVVDVSHEDPEVKFNWYVDGVEVHNAKTKPREEQYNSTYRVVSVLTVLHQDWLNGKEYKCKVSNKALAAPIEKTISKAKGQPREPQVYTLPPSREEMTKNQVSLTCLVKGFYPSDIAVEWESNGQPENNYKTTPPVLDSDGSFFLYSKLTVDKSRWQQGNVFSCSVMHEALHNHYTQKSLSLSPG light 1: EIVLTQSPATLSLSPGERATLSCRASQSVNSNLNWYQQKPGQAPRLLIYHGSNRATGIPARFSGSGSGTDFTLTISSLEPEDFAVYYCQQFDYFKEHNTFGQGTKVEIKRTVAAPSVFIFPPSDEQLKSGTASVVCLLNNFYPREAKVQWKVDNALQSGNSQESVTEQDSKDSTYSLSSTLTLSKADYEKHKVYACEVTHQGLSSPVTKSFNRGEC light 2: QTVVTQEPSLTVSPGGTVTLTCRSSTGAVTTSNYANWFQQKPGQAPRGLIGGTNKRAPGTPARFSGSLLGGKAALTLSGAQPEDEAEYYCALWYKQRWVFGGGTKLTVLGQPKAAPSVTLFPPSSEELQANKATLVCLISDFYPGAVTVAWKADSSPVKAGVETTTPSKQSNNKYAASSYLSLTPEQWKSHRSYSCQVTHEGSTVEKTVAPTECS | 1.2 | 0.8 | 0.8 | 1 |  |
| AB1L3-1/N (bispecific antibody, human IgG1, kappa, lambda, L234A L235A, Kappa-lambda body: common heavy chain (hIgG1 L234A+L235A+P329A), kappa CEA light chain AB1, lambda CD3 light chain L3-1 (1A4); also called parental KL bispecific antibody) heavy: EVQLVESGGGLVQPGGSLKLSCAASGFTFNTYAMNWVRQAPGKGLEWVGRIRSKYNNYATYYADSVKDRFTISRDDSKNTAYLQMNSLKTEDTAVYYCVRHGNFGNSYVSWFAYWGQGTLVTVSSASTKGPSVFPLAPSSKSTSGGTAALGCLVKDYFPEPVTVSWNSGALTSGVHTFPAVLQSSGLYSLSSVVTVPSSSLGTQTYICNVNHKPSNTKVDKRVEPKSCDKTHTCPPCPAPEAAGGPSVFLFPPKPKDTLMISRTPEVTCVVVDVSHEDPEVKFNWYVDGVEVHNAKTKPREEQYNSTYRVVSVLTVLHQDWLNGKEYKCKVSNKALAAPIEKTISKAKGQPREPQVYTLPPSREEMTKNQVSLTCLVKGFYPSDIAVEWESNGQPENNYKTTPPVLDSDGSFFLYSKLTVDKSRWQQGNVFSCSVMHEALHNHYTQKSLSLSPG light 1: EIVLTQSPATLSLSPGERATLSCRASQSVNSNLNWYQQKPGQAPRLLIYHGSNRATGIPARFSGSGSGTDFTLTISSLEPEDFAVYYCQQFDLRHEHNTFGQGTKVEIKRTVAAPSVFIFPPSDEQLKSGTASVVCLLNNFYPREAKVQWKVDNALQSGNSQESVTEQDSKDSTYSLSSTLTLSKADYEKHKVYACEVTHQGLSSPVTKSFNRGEC light 2: QTVVTQEPSLTVSPGGTVTLTCRSSTGAVTTSNYANWFQQKPGQAPRGLIGGTNKRAPGTPARFSGSLLGGKAALTLSGAQPEDEAEYYCALWYKQRWVFGGGTKLTVLGQPKAAPSVTLFPPSSEELQANKATLVCLISDFYPGAVTVAWKADSSPVKAGVETTTPSKQSNNKYAASSYLSLTPEQWKSHRSYSCQVTHEGSTVEKTVAPTECS | 0.8 | 0.7 | 0.7 | 0.8 |  |
| AB71L3-1/N (bispecific antibody, human IgG1, kappa, lambda, L234A L235A, Kappa-lambda body, lead optimization wave 2) heavy: EVQLVESGGGLVQPGGSLKLSCAASGFTFNTYAMNWVRQAPGKGLEWVGRIRSKYNNYATYYADSVKDRFTISRDDSKNTAYLQMNSLKTEDTAVYYCVRHGNFGNSYVSWFAYWGQGTLVTVSSASTKGPSVFPLAPSSKSTSGGTAALGCLVKDYFPEPVTVSWNSGALTSGVHTFPAVLQSSGLYSLSSVVTVPSSSLGTQTYICNVNHKPSNTKVDKRVEPKSCDKTHTCPPCPAPEAAGGPSVFLFPPKPKDTLMISRTPEVTCVVVDVSHEDPEVKFNWYVDGVEVHNAKTKPREEQYNSTYRVVSVLTVLHQDWLNGKEYKCKVSNKALAAPIEKTISKAKGQPREPQVYTLPPSREEMTKNQVSLTCLVKGFYPSDIAVEWESNGQPENNYKTTPPVLDSDGSFFLYSKLTVDKSRWQQGNVFSCSVMHEALHNHYTQKSLSLSPG light 1: EIVLTQSPATLSLSPGERATLSCRASQSVNSNLNWYQQKPGQAPRLLIYHSSNRPHGIPARFSGSGSGTDFTLTISSLEPEDFAVYYCQQFDYFKEHNTFGQGTKVEIKRTVAAPSVFIFPPSDEQLKSGTASVVCLLNNFYPREAKVQWKVDNALQSGNSQESVTEQDSKDSTYSLSSTLTLSKADYEKHKVYACEVTHQGLSSPVTKSFNRGEC light 2: QTVVTQEPSLTVSPGGTVTLTCRSSTGAVTTSNYANWFQQKPGQAPRGLIGGTNKRAPGTPARFSGSLLGGKAALTLSGAQPEDEAEYYCALWYKQRWVFGGGTKLTVLGQPKAAPSVTLFPPSSEELQANKATLVCLISDFYPGAVTVAWKADSSPVKAGVETTTPSKQSNNKYAASSYLSLTPEQWKSHRSYSCQVTHEGSTVEKTVAPTECS | 0.8 | 0.7 | 0.9 | 1 | ≥ 40 |
